Experimental findings from US11448657B2, “Methods and kits for assessing Heparanase procoagulant activity, compositions comprising Heparanase, and methods for the treatment of coagulation-related disorders” (RAMBAM MED-TECH, priority 2011, dated 2022) are described below.

Entries after “also recorded” stand apart in the source; their conditions may differ.

Data set [1] addresses T1, TF-factor VIIa complex (Homo sapiens, UniProt P13726).
T1 construct: purchased American Diagnostica (Stanford, Conn., USA)
Put plainly: Thrombin generation: prothrombin added to the factor Xa generation assay (chromogenic substrate for thrombin). Format: biochemical. As to conditions: prothrombin 222 μM added, 15 min 37° C. Here is the method: FIG. 1D. Heparanase increases thrombin levels. Recombinant human TF, recombinant human factor VIIa, plasma-derived human factor X, and plasma-derived human prothrombin were incu-bated (15 min, 37° C.) in a total volume of 125 μL. Chromogenic substrate for the detection of thrombin was then added (1 mM). Human recombinant heparanase (Hepa) was added prior to the addition of the coagulation factors. The mean value±SD of three independent experiments is shown. Note a 3-fold increase in coagulation activity in the presence of heparanase.
In order to verify that factor Xa produced in the presence of heparanase is active, thrombin generation, the next step in the coagulation cascade, was examined. The experiment described above (FIG. 1A) was repeated and plasma-derived human prothrombin (222 μM) was added following the addition of factor X. After 15 minutes at 37° C., chromogenic substrate for thrombin was added (1 mM). In the presence of heparanase, thrombine generation was increased (FIG. 1D).

Data set [2] deals with normal human plasma. The data set can be described thus: Factor Xa generation in pooled normal human plasma. Format: biochemical. Conditions: factor VIIa and factor X added, 15 min 37° C. Here is the method: Increasing doses of heparanase were added to pooled normal human plasma (25 μL plasma). After 15 min at 37° C., chromogenic substrate for the detection of factor Xa was added (1 mM). The mean value±SD of three independent experiments is shown. Note a 7- to 8-fold increase in coagulation activity in the presence of heparanase.
(§1) Next, the procoagulant effect of heparanase in human plasma was tested. Using an ELISA method [Shafat I. et al., Biochem Biophys Res. Commun. […] When heparanase, factor VIIa and factor X were incubated (15 min, 37° C.) with pooled normal human plasma from five healthy donors, followed by the addition of a chromogenic substrate for factor Xa, a 7- to 8-fold increase in factor Xa levels was obtained com-pared to levels in plasma incubated in the absence of heparanase (FIG. 2). In this condition the coagulation was mainly dependent on the concentration of endogenous TF, as described previously [Suefuji H. et al., Am Heart J. 1997, 134(2 Pt. 1):253-259; Kim H K et al., Cardiology. 2000, 93(1-2):31-36]. The effect of heparanase was also tested in whole blood using thromboelastography. Citrated blood samples from healthy donors to which factor VIIa (0.04 μM) and factor X (1.4 μM) were added were recalcified according to the manufacturer's recommendations (final concentration of CaCl2) 8 mM) and arranged in the disposable cups of the thromboelastogram. […]

For data set [3], the system named is whole blood. The data set can be described thus: Thromboelastography in citrated whole blood. Also noted: species or system human. Here is the method: Thromboelastogram studies. The assay includes addition of factor VIIa, X and calcium to blood drawn into citrate in the presence or absence of heparanase. Each time, a sample with addition of heparanase (Hepa) and a sample without (Con)—were analyzed in parallel. R—The period of latency from the time that the blood was placed in the analyzer until the initial fibrin formation: this represents the coagulation factor activation.
Angle—measures the rapidity of fibrin build-up and cross-linking: this represents the coagulation factor amplification. MA—A direct function of the maximum dynamic properties of fibrin and platelet bonding: signifies the ultimate strength of the clot. […] Representative results are shown.
The assay was performed according to the manufacturer's recommendations. Briefly, 3 mL of healthy donor's whole blood were collected in a bottle containing 3.2% (0.12M) sodium citrate and stored at room temperature. Recalcification and TEG® measurements at 37° C. were performed in disposable cups of the Thrombelastograph® coagulation analyzer (Haemoscope Corporation, Skokie, Ill., USA).
as §1, with “thromboelastography.” for “thromboelastography. Citrated blood samples from healthy donors to which factor VIIa (0.04 μM) and factor X (1.4 μM) were added were recalcified according to the manufacturer's recommendations (final concentration of CaCl2) 8 mM) and arranged in the disposable cups of the thromboelastogram.”

Data set [4] concerns ICR mice. Put plainly: Intra-peritoneal injection of heparanase to ICR mice, blood drawn after 4 hours (ELISA). Format: in vivo. As to conditions: for IL-6 level: heparanase intra-peritoneal. Here is the method: Heparanase or LPS were injected to ICR mice and blood was drawn after 4 hours. Intra-peritoneal injection of heparanase (0.5 μg/mg) compared to PBS injection increased TAT (p<0.05) (18A) and D-Dimer (p<0.05) (18B) levels to similar levels induced by LPS (5 μg/mg).
(§2) FIG. 19: IL-6 as a marker of sepsis severity Heparanase, LPS and LPS+heparanase were injected intra-peritoneal to ICR mice. Four hours later the blood was drawn and IL-6 level was measured by ELISA.
(§3) Methods: ICR mice, heparanase knock-out mice and heparanase over-expression mice were studied. Sepsis was induced by intra-peritoneal injection of lipopolysaccharides (LPS). Inhibitory peptides to TF/heparanase complex (number 11, 22, 5, 6, 7, 12, and 21 [SEQ IDs: 1-7]) were injected intra-peritoneal half an hour after heparanase or LPS. After 4 hours blood was obtained via sub-mandibular plexus puncture followed by mice sacrificing. Levels of thrombin-antithrombin (TAT), D-Dimer and IL-6 were tested using ELISA. Western blot to plasma factor VII and immunostaining of fibrinogen in lung, kidney and spleen were performed.

Data set [5] concerns ICR mice. The data set can be described thus: LPS-induced sepsis in ICR mice. Format: in vivo. Here is the method:
as §2
Heparanase, LPS and LPS+heparanase were injected intra-peritoneal to ICR mice. Four hours later the blood was drawn and thrombin-antithrombin (TAT) (20A) and D-dimer (20B) levels were evaluated by ELISA. Levels of TAT and D-dimer were reduced in the LPS+heparanase group compared to LPS alone in accordance with a severe activation of the coagulation system (p<0.05).
as §3

Where [6] appears, read: heparanase 0.5 μg/mg intra-peritoneal, 4 hours, compared to PBS.
[7] abbreviates: LPS+heparanase compared to LPS alone, 4 hours.
The mark [8] stands for this setting: heparanase half an hour following LPS.

T1 sequence (P13726 33-295): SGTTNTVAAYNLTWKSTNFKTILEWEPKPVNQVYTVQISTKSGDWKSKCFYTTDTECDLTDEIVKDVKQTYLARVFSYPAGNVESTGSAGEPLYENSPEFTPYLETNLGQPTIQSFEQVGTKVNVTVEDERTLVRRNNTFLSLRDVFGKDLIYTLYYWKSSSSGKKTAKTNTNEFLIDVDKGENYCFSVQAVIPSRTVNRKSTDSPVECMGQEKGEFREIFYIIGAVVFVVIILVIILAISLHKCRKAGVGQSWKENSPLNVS
T1 sequence (P08709 61-212 partner limits assumed): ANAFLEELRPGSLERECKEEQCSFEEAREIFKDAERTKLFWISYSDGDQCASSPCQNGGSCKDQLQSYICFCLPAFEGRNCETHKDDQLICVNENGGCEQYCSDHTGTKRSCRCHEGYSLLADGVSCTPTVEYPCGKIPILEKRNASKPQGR
T1 sequence (P08709 213-466 partner limits assumed): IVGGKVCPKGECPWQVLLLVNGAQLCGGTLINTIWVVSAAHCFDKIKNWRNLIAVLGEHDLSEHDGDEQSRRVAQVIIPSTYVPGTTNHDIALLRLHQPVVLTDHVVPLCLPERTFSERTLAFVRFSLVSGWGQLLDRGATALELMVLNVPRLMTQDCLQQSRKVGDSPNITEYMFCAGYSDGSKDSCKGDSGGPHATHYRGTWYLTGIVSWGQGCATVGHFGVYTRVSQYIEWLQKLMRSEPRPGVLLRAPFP

B1: heparanase: single chain GS3 active heparanase, comprised of the 8 kDa and 50 kDa heparanase heterodimer (8+50), recombinant human (protein, listed as Homo sapiens)
chain 1: DPAQDVVDLDFFTQEPLHLVSPSFLSVTIDANLATDPRFLILLGSPKLRTLARGLSPAYLRFGGTKTDFLIFDPKKE
chain 2: DPGKKFKNSTYSRSSVDVLYTFANCSGLDLIFGLNALLRTADLQWNSSNAQLLLDYCSSKGYNISWELGNEPNSFLKKADIFINGSQLGEDFIQLHKLLRKSTFKNAKLYGPDVGQPRRKTAKMLKSFLKAGGEVIDSVTWHHYYLNGRTATREDFLNPDVLDIFISSVQKVFQVVESTRPGKKVWLGETSSAYGGGAPLLSDTFAAGFMWLDKLGLSARMGIEVVMRQVFFGAGNYHLVDENFDPLPDYWLSLLFKKLVGTKVLMASVQGSKRRKLRVYLHCTNTDNPRYKEGDLTLYAINLHNVTKYLRLPYPFSNKQVDKYLLRPLGPHGLLSKSVQLNGLTLKMVDDQTLPPLMEKPLRPGSSLGLPAFSYSFFVIRNAKVAACI
modifications: single-chain GS3 linker
Consider B1, for which the “increase in coagulation activity (thrombin level)” value in data set [1] stood at 3 fold. Besides, the “increase in coagulation activity (factor Xa levels) in plasma” value in data set [2] is listed as 7- to 8 fold. In data set [3] (heparanase 4 μM), the “time to clot formation (R) at the highest dose” value is reported as “effect on time to clot formation was abolished; also recorded: no effect on R is detected”. In addition, in data set [3] (increasing doses of heparanase), the “thrombus strength (MA)” value was “increase in thrombus strength; also recorded: stronger”. The “time to clot formation (R)” value in data set [3] (increasing doses of heparanase, factor VIIa 0.04 μM, factor X 1.4 μM, recalcified blood) is “significant reduction in time to clot formation; also recorded: significantly faster”. The signs of illness result in data set [4] (heparanase 0.5 μg/mg intra-peritoneal) was “mice did not show signs of illness”. For the same molecule, in data set [4] (setting [6]), the D-dimer level entry is “increased” and the TAT level result is reported as “increased”. Moreover, the IL-6 level entry in data set [4] (4 hours) is given as “levels of IL-6 did not rise”. The IL-6 level result in data set [4] (4 hours, listed as Heparanase) was “did not increase IL-6 level”. In data set [5] (setting [7]), the D-dimer level entry is listed as “reduced levels”, the IL-6 level result is “further augmented IL-6 level compared to LPS alone” and the TAT level result is given as “reduced levels”. In addition, in data set [5] (setting [8]), the “blood leak from puncture” value was “profuse blood leak from puncture”, the “factor VII by western blot” value is listed as “reduced levels”, the fibrinogen by immunostaining result was “reduced levels” and the “levels of IL-1” value is “maximal levels of IL-1”.
